The text below walks through data of the domain aggregation screens of Martell et al. (2025).
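Note: 20 min heating vs room temperature control held 20 min.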

The data set in a line: soluble fraction after stress (log2 fold change); higher = more stays soluble; pooled small domains, quantitative proteomics. To be noted: stress: 75 degC.
For “HMKFNLWLSEKLKKLGLTQRKLAEQAGVSPATVSRWLSGEFEPDLTNLRKINQVLGVPERELFLQLGL”, the “soluble fraction (log2)” value was -0.193. As for “HMKFPNVGENLRLLRQEMGISLDKASKMTGVSKAMLGQIERGESSPTVSTLWKISSGFKINFTTLLSE”, the “soluble fraction (log2)” value is -2.92.

For the sequence “HMKFPPASDIRRMRKAIDVTQTELAKQSGVSQSTIAKIERGRISASYDTVVKLFETLDEMAK”, the “soluble fraction (log2)” value was -0.405. Under “HMKFTPPTLEQIKNEMLLKTDEYNADIQSDRFFTYYDSNGWMVGKNKMKKFLVSLVAVFAATSA” stands -0.786; under “HMKFYIHEIIGFNAVDKVAGIVGKVININEDSPQKKLVVNYNGKEVFIPLVDEIVRKIDKQKNEVLITMP”, 0.00585; under “HMKGEIEELLYEEVTKDNNTTFLRIYIKLNDEYNTLLNLGIIGIKTEEKVNELVNLGYKKVL”, -4.19. Next, “HMKGISRVTMELIIDALKKETEPRTVQWIAEKTGLATQTTYRYLQYMVSEQTVEALNVYGKVVSLKAK”: -0.649; “HMKGKWKPIILWQLSKAPQSLSGLRHSIAGISQKMLIQHLNELIHFGFVVRTTFEGYPLKVEYDLTDRGR”: -0.196; “HMKGLDAAVVDLFKSKGASIVFAGNRLSLSGEVADQATKDELLAKAKAILASLGASVSLDDKLMVKGAKAS”: 0.0761. Under “HMKGMIKVASMSLGADLGLYSRHLKYLGIVHRVVEESGGQSVYIQKLNDLHTAKESLELYLKNELKI” stands -2.56. On to “HMKGQNRSEITAGARVKVVQKQDQRTGALTEGIVRDILTRSPHHPHGIKVRLESGIVGRVKDVL”, for which the “soluble fraction (log2)” value was -0.312.

“HMKGSIMIETILKELKKNNKGFNFLLEKFDISEDELMKIINDLIHDKKVFLNSNNKYEIVSD”: the “soluble fraction (log2)” value is -0.72. Under “HMKGTVLAPGIILNADDQRFTYLQEDVASVAKDGAAIVLKQGDEVDFIADGQTAKQIYLTKT” stands 0.289.

Take “HMKGVPGIGDYVKLSGGSTVGKVLSISGKKAEVAFGLLRTTTELSKLEKVRKPKELLQSGVSS”: the “soluble fraction (log2)” value was -0.0317. Next, “HMKGVTVDGDNITVDGEKQTLISVNKNLDGDVVSYTYRTADGKLRTSRNVEVAQEINKQQLLKSIDAQ”: 0.0529; “HMKGWPDREQAEKIWQQGIDYAIEHHTMSPQIVKEYIFHTQGIARSAALIAARLPDMDTEKAYVLGLLHD”: -0.377. Under “HMKIAEALNLRGDADSYERQEAIWLLEHIVGMSALELKYRGEQDLTEDQLQQYRSGLQRLEQGEPLAYVIG” stands -0.965; under “HMKIDLKQIEGVLDELAKVKGSLITILQKTQETYGYLPKEAIIYISERTGIAESEIMGVATFYTQFRL”, -0.45. Take “HMKIDLTPQEEKIYSVLETELTLDEIIMKTSIKAGEALAILMDLELKKLVASVAGGKYRRKA”: the “soluble fraction (log2)” value came to 0.386. Under “HMKIEETLGKTAQVYIPIPQYLSGIGKVTLSVRGSLRELDAMTEEEKIPSNTIVRIVKVQDQVLFVKRA” stands -3.77; under “HMKIHNSIREITDFDRKQNSNIPSDAKYRIVFYTPQGNKTIIPEELQGLQYYRSKELAEIALNKKLNSN”, -0.197. Under “HMKILKQLEAIIEKEGLNESAKQFYLREISELDKEKQQEIINLVDKMEQAGFKNNLASAFSEVTEDIPQF” stands -0.138; under “HMKILNYQSLVGKKGITKSMLRPAGIVEIEGRRYDVVTRGEFIEPGKMITVDEVQGNRIIVQIERE”, -0.758; under “HMKIPIIYQPLKNAKRIKIYIPYELKELRTIFKKINTTFWHPNQKLWSIIYTQENVALIKNLFGKNYKIVN”, -0.499.

In the case of “HMKIQEVDYSTFLNMLNEKSIAQVEIQDNQIAFNSNQEGNKQIYVTGRIEEDTELVNRLQAAGVQFSRV”, the “soluble fraction (log2)” value is 0.0484. Next, “HMKIRIIKTASNAKAVQIVSYKNNKRIVLQHIGSAHTDETLNDLKILAEEWIKDYNHQLSIF”: -2.88. Under “HMKISDLPAAQVYREIVHAWPKAAAYADLAPINNGGMQRWRDVVHEWVLRGYNPANLRGMLEWYKAGIPTR” stands -0.731; under “HMKISDMIETNLKFLRGKHSISQAELAESLGIPRTTLSAYERGFVEPNIELMLKMAKYFNVSLDDLIAYN”, -2.07. Under “HMKISQSRKAGKLVLESELKRGGVSLDQYRGGRMSRILELIGVKSLNELLTDLGTGKKTGALVAERFFSGL” stands -0.618; under “HMKITFNPVSSGRLDIILAEKTGYTRSYVKQLVEKQAVTINGEAAKKSGQNVKAGDEIALDEP”, 0.151. Regarding “HMKITIDSVERDETFRLIWGTGWKPKNKIQELAAIQAKKNGLGRMNEVAGLAAWRGIWQQVAEQVAQEVL”, the “soluble fraction (log2)” value was -2.03. Next, “HMKITKIWFTADHIFGRDEEGKEYSQSLLWYPKLSAASDEERSQYTFGYDGIHWRSLDEDISFESF”: -3.01; “HMKIVFGHVKWFDIDKGFGFLVLEDEGGDVLLHANVLKNFGRTSVSEDTKIEFEFLETDKGRQVSTIYNIL”: -3.28; “HMKIVQDIAFSDFLNEVEKDNVLDVNIKGDLINGNLADGRKFKTYTPYDPNLIEKLSNKNVTINVEPYN”: 0.512.

On to “HMKKAENEKLNIPYDVTEFLASSIKDDIRMMEGAMVKLLALSSLTKQDITQSLAKRVIQDVLGSSA”, for which the “soluble fraction (log2)” value is -0.209. Regarding “HMKKAMIISTKRGTPAAELDKIIREFEAKGLSVTMIRGTDYNVFGLVGDTTVIDEKQVRANPYVENVQRV”, the “soluble fraction (log2)” value is -0.157. Under “HMKKATYDVMVREALVSFKKKGATLQSIKKKIKADYAIEANATAVKSAIQKGMEAGSIRKSYDLYFFMD” stands -2.8; under “HMKKDDLKQINGIGTTIEKKLNEIDIYNFYQISNLSKEDIETISEKIKTFPGKIERDNWVGQAQELL”, 0.0235.

In the case of “HMKKIFIDAPLDTMITIPKDTTHHLLTVFRHKMEKPVLVGGSDGRTGVYQIQDVVDGEASAKLVGDIQ”, the “soluble fraction (log2)” value came out at 0.738.

With “HMKKISAKQQQILDYISSYSLEHGYPPSVREIGAEMGLRSPSTVHAHLKKLQEAGYLEPNEHKSRALTP”, the “soluble fraction (log2)” value is -0.146. Under “HMKKITTANPLDINRATLAQLDTLPGIGPVTAERIIAYRSKVGRINSLDELKKISGLGGMKFEEIKPLLRV” stands 0.0978. Next, “HMKKKLPRYLQEQKYGNGMVFYRYNPTARYIDEGIVTRTNLGSDLSIAKKKANEFNKLIDAFLQQQSE”: -1.16. Turning to “HMKKMSFKEAFLKYVEIKDNPYNMESVKMLVSLQPLIVKAYSILGVDKVRRLNYVKTKIQDAIINGD”, the “soluble fraction (log2)” value is -2.7.

“HMKKNLELGLLPHEVKSILGEPDFIDTITDIDGIRYDMWSYTKLNVTKRLYFEDLFLVRMEE”: the “soluble fraction (log2)” value is -3.31. Take “HMKKNNTTPIPKTLNYVNIKGLSNEAVERLNKHKPSTLGQASRLEGITPAATSLISIAIKKNQLLEKAES”: the “soluble fraction (log2)” value was found to be 0.0664. Under “HMKKPAERRKELVDAAAHLFAEKGYENTSVRDILDAVGGAPGMFYYYFKSKQDIYVAVMEDF” stands -3.71; under “HMKKPANLISEDRMVEVLYDVIIINTAKGVNKQLLQNNINNPLNYIYRSHGIDSLQFAESNAYYTS”, -0.563; under “HMKKSGFFSAGDRIQLTDNKGRQYSFNITEGKEFHTHQGFIKHDDLIGMPEGSVVSINSTTGVVQKFMAF”, 0.32.

Consider “HMKKSIRIFELMKAKVAAEIFDQMILEGKIEDVFDIIVRLKDSNVSNIMKTMSVENSSRLVQKLERYNKD”, for which the “soluble fraction (log2)” value is -3.12.

Consider “HMKKVRIPDDPEEAYRKALKTAMNIVGYKDNTEFTLREKLSERGYSGETVDAVAEFMKSKGYV”, for which the “soluble fraction (log2)” value was -0.0562. Under “HMKKVTMQDIANILNISRVTVWKVLNNQPGVSKQLRDQILLTAKETGYLKPGQEAEAYLEENNIYFEG” stands -0.272.

“HMKKYDIKEAQEIAEINRIPGLVTTSHGRRVYFDPKIMQYVSEEQIVKKYGQKTVKMLDQWYVSNILNK”: the “soluble fraction (log2)” value was -0.21. Turning to “HMKKYLIIDAANEKIIFKIIDNNKTYTNDYENSRKNFDRFAVLLFNFLNKNMISFDTIDKAL”, the “soluble fraction (log2)” value was -0.118. Under “HMKLARGEFEIMAKFIKEISGISLEQNKTYLIESRLSDLAESEGVKTFSDFFFKAKFNKILKEKIIDAI” stands -1.13; under “HMKLHFTINGVHYTWYKQFIRGIQIRELGNIPREDELYLDLPDGWKDDFIEDDEIVDLARPGVEHFISRAK”, -4.84. Under “HMKLIIVPNLVGQSRRSVEISLQQIGLRIDTVYTEFNPDYPKGTVAWQFPKSGDHIKKGMGLQITVSQG” stands -0.391. Under “HMKLINEDLNNEIVFEENKVNLLVIENKKKFVQFIQEIIKQINGDEGKFSLFDINTELKIHDKIDII” stands 0.174.

For the sequence “HMKLIPLTDMRGQLRSGAPLPWGVRDAQGNLLLGKGHVIASDDMLEALLARGMFVDAEEAKAARG”, the “soluble fraction (log2)” value stood at 0.0132. Next, “HMKLISVAVMRASDAAEIAGGTDSKTLMYRAGLGLFQSWDWHGKIDIVTGSGNNAGDGYVLALLL”: 0.14; “HMKLNKRQYAYQVIRSRILDGTYVPGQRIIIDQIAKEVNSSHIPVREAIHQLESEQLIDYEPNIGAIVKG”: -0.242; “HMKLSALRDKIKEHLLRQIQNGELQVGKTINLAALSRVTGISVTPIREALTQLEQAQVIQAVPNRGFVVA”: -0.418. Under “HMKLSIGGTIEKLRRNKGLSHQQLANALGVTPDTVEKWEINAAYPDITLLSPIARLLGTTLDALLMF” stands -1.77; under “HMKLSKLTKPELDEIFRNANFTEEEEKVFWLLARGKSLEQISAKTFLPIATVNRRVKSIKDKIG”, -0.436. Next, “HMKLTKPKLIQLIHIAKSKLNMDELSYRVLLDNLTGKTSTTKMTVGELLKVYESMKDKGFKPQV”: -0.993; “HMKLTTRQTEIINIVKAEQPISGEKIAQNLGLSRATLRNDLSILTMTGLLDAKPKVGYFYTGQ”: -0.976; “HMKLVESALSILEEAVDRDFHGNLGDAARYFDIPYQTIYSWLKSRKRVPSLRALEPVLEKLGVSFTT”: -2.01. Regarding “HMKLVTIPNVIGKTKEDAMKTLKDLGVTVTVETKESEKDDGTVIAQSKAEGTKLTAGENVTITVSKKKK”, the “soluble fraction (log2)” value was at least 1.04. Under “HMKMATITKRTNPSGAVVYRAQVRVKREGYPPYSESRTFSKKSLATEWAKRREFEIETNPDLLFN” stands -1.76; under “HMKMLEINDNDSVGLKNLKTQYNHNQKVIENFQLEINKVINDGELPDKYLLDGMEKYQKLNMQIMSTIEKQ”, 0.0503. Next, “HMKMPNGYGSVYKLSGNRRKPWAARVTDGWVNDTKTKKSKQKYKFIGFYETRKEALLALADYNANP”: -2.05.
